Experimental data from the nanobody polyreactivity screen of Harvey et al. (2022).

Experiment: yeast display, Sf9 membrane polyspecificity reagent, FACS + sequencing; frameworks hold sequencing errors
Outline: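 Genes from sorted yeast were amplified by colony PCR, read by MiSeq 2 × 250 sequencing and filtered on CDR length. These cells carried a synthetic nanobody library in Saccharomyces cerevisiae BJ5465 and were sorted by FACS into low and high (top ~1%) gates on anti-HA and streptavidin fluorescence. Polyreactivity is labelled according to the gate of origin.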
In the case of “QVQLVESGGGLVQAGGSLRLSCAASGRTFRSYAMGWYRQAPGKERELVAAITWGGGRTYYADSVKGRFTISRDNAKNTVYLQMNSLKPEDTAVYYCATRVKFSTSYWLYYWGQGTQVTVSS”, the “polyreactivity (PSR sort gate)” value is reported as “high polyreactivity”.
With “QVQLVESGGGLVQAGGSLRLSCAASGSTFPKNVMGWYRQAPGKERELVAAINYSGTSTYYADSVKGRFTISRDNAKNTVYLQMNSLKPEDTAVYYCAARFPLVRYNYWGQGTQVTVSS” the “polyreactivity (PSR sort gate)” value was “high polyreactivity”.
For “QVQLVESGGGLVRAGGSLRLSCAASGFVYYVMGWYRQAPGKERELVAAISKGGGRTYYADSVKGRFTISRDNAKNTVYLQMNSLKPEDTAVYYCAAAFWRITRYGMDYWGQGTQVTVSS”, the “polyreactivity (PSR sort gate)” value was “high polyreactivity”.
For “QVQLVESGGGLDQAGGSLRLSCAASGFTFAVYAMGWYRQAPAKERELVAAISRSGTRTYYADSVKGRFTISRDNAKNTVYLQMNSLKREDNAVYYCAADNYRHGYEYWGLGTQVTVSS”, the “polyreactivity (PSR sort gate)” value was “high polyreactivity”.
For “QVQLVESGGGLVQAGGSLRLSCAASGGIFAQYAMGWYRQAPGKEREFVATISTSGGSTYYADSVKGRYTISRDNAKNTVYLQMNSLKPEDTAVYYCARYSYRGTNVRYDYWGQGTQVTVSS”, the “polyreactivity (PSR sort gate)” value was “high polyreactivity”.
In the case of “QVQLVESVGGLVQAGGSLRLSCAASGSIFYNYAMGWYRQAPGKERELVAAISSNGGSTYYADSVKGRFTISRDIAKNTVYLQMNSLKPEDTAVYYCAARYWYPYWYRYSAYDYWGQGTQVTVSS”, the “polyreactivity (PSR sort gate)” value is reported as “high polyreactivity”.
With “QVQLVESGGGLVQAGGSLRLSCAASGRIFWDNAMGWYRQAPGKERELVAAISDSVVITYYADSVKGRFTISRDNAKNTVYLQMNSLKPEDTAVYYCAADKRGSVYLSSFWMDYWGQGTQVTVSS” the “polyreactivity (PSR sort gate)” value was “low polyreactivity”.
In the case of “QVQLVESGGGLVQAGGSLRLSCAASGRILTSNAMGWYRQAPGTEMELVAAISWSGGSTYYADSVKGRFTISRDNAKNTVYLQMNSLKPEDTAVYYCAAVSYYASDYRYDYWGQGTQVTVSS”, the “polyreactivity (PSR sort gate)” value is reported as “low polyreactivity”.
In the case of “QVQLVESGGGLVQAGGSLRLSCAASGFIIGYYAMGWYRQAPGKVREFVAAISRSGGSTYYADSVKGRFTISRDNAKNTVYLQMNSLKPEDTSVYYCAADYQKTYTSKFNYWGQGTQVTVSS”, the “polyreactivity (PSR sort gate)” value is reported as “high polyreactivity”.
With “QVQLVESGGGLVQAGGSLRLSCAASGIIFTYYAMGWYRQAPGKERELVAAISVSGSSTYYADSVKARFTISRDYAKNTVYLQMNRLKPEDTAVYYCAVKQGFYSRALKLYYWGQGTQVTVSS” the “polyreactivity (PSR sort gate)” value was “high polyreactivity”.
For “QVQLVESGGGLGQAGGRLRLSCAASGIYYNAMGWYRQAPGNERELVAAITTGDRTNYADSVKGRFTISRDNAKNTVYLQMNSLKPEDTAVYYCNAVVERLSSTARDFAYDYWGQGTQVTVSS”, the “polyreactivity (PSR sort gate)” value was “low polyreactivity”.
With “QDQLVESVGGLVQAGGSLPLSSAASGLTFKRNAMRWYSQAPGKERELVAAIRYSTDSTNYADSVKGRFTISRDNAKNTVYCQMNSLKPESTAVYYCAKDKQDYEYWGQGTQVTVSS” the “polyreactivity (PSR sort gate)” value was “low polyreactivity”.
In the case of “QVQLVESGGGLVQAGGSLRLSCAASGITFKWNALGWYRQAPGKERELVAVISSDGRTYYADSVKWRFTISRDKAKNTVYLQMNSLKPEDTAVYYCNADRSVIHRGYIWQPGRNDYWGQGTQVTVSS”, the “polyreactivity (PSR sort gate)” value is reported as “low polyreactivity”.
For “QVQLVESGGGLVQAGGSLRLSCAASGSIFNRYARGWYRQAPGKERELVAAISSTGSTYYADSVKGRFTISRDNAKNTVYLQMNSLKPEDTAVYYCNADATHDWLRVDTYEYWGQGTQVTVSS”, the “polyreactivity (PSR sort gate)” value was “low polyreactivity”.
For “QVQLVESGGGLVQAGGSLRLSCAASGITFVIYAMGWYRQAPGKEREFVAGINWSTGSTYYADTVKGRFTISRDYAKNTVYLQMNSLKPEDTAVYYFNVDAIINAIGAYWYDFDYWGQGTQVTVSS”, the “polyreactivity (PSR sort gate)” value was “low polyreactivity”.
For “QVQLVESGGGLVQAGGSLRLSCAAAGSIFYYNAMGWYRQAPGKERELVASIRAHGGNTYYADSVKGRFTISRDNAKNTVYLQMNSLKPEDTAVYYCAKESRYAHLYYYWGLGTQVTVSS”, the “polyreactivity (PSR sort gate)” value was “low polyreactivity”.
In the case of “QVQLVESGGGLVQAGGSLRLSCAASGRIFNRYAMGWSRQAPGKERELVAAITTSADSTYADSVKGRFTISRDNAKNTVYLQRNSLKPEDTAVYYCNVASRQGSTYDYWGQGTQVTVSS”, the “polyreactivity (PSR sort gate)” value is reported as “high polyreactivity”.
With “QVQLVESWGGLVQAGGSLRLSCAASGTTFTVYAMGWYRQAPGKERELVAAISWSTGRTYYADSVKGRFTISRDHAKNTVYLQMNSLKPEDTAVYYCAARVSYYRTPAEYGYWGQGTQVTVSS” the “polyreactivity (PSR sort gate)” value was “high polyreactivity”.
In the case of “QVQLVESAGGLVQAGGSLRLSCAASGRIYGQNAMGWYRQAPGKERELVAAITGSGGRTYYADSVKGRFTISRDNAKNTVYLQMNSLKPEESAVYYSAVRVTSYYRTMDYWGQGTQVTVSS”, the “polyreactivity (PSR sort gate)” value is reported as “low polyreactivity”.
For “QVQLVESGGGLVQAGGSLRLSCAASGIIFNWYAMGWYRQAPGKERELVAGISTSGGSTYYADSVKGRFTISRDNAKNTVYLQMNSLKPEDTAVYYCAARSRRYYGYDYWGQGTQVTVSS”, the “polyreactivity (PSR sort gate)” value was “high polyreactivity”.
With “QVQLVESGGGLVQAGGSLRLSCAASGLTFLLNAMGWYRQAPGKERELVAAITWRGGRTYYADSVKGRFTISRDNAKNTVYLQMNSLKPEDTAVYYCAAVPVVQSQPTYYYWGQGTQVTVSS” the “polyreactivity (PSR sort gate)” value was “high polyreactivity”.
In the case of “QVQLVESGGGLVQAGGSLRLSCAASGFIFPYYAMGWYRQAPGKDRELVAAISQSGGSTYYADSVKGRFTISRDYAKNTVYLQMNSLKPEDTEVYYCAKFIPSYHDGDYWGQGTQVTVSS”, the “polyreactivity (PSR sort gate)” value is reported as “low polyreactivity”.
With “QFQLVESGGGLVQAGGSLRLSCAASGSTFPHYTMGWYRQAPGKERELVAAIRRSAGSTYYADSVKGRFTISRDNAKNTVYLQMNSLKPEDTAVYYCNTRQRPPYLVKLNYWGQGTQVTVSS” the “polyreactivity (PSR sort gate)” value was “high polyreactivity”.
For “QVQLVESGGGLVQAGGSLRLSCAASGLIFTRNAMGWYRQAPGKERELVATITWSGGRTYYADSVKGRFTISRDNAKNTVYLQMNSLKPEDTAVYYCAAASGPLTYTFFRNDYWGQGTQVTVSS”, the “polyreactivity (PSR sort gate)” value was “low polyreactivity”.
In the case of “QVELVESGGGLVQAGGSLRLSCAASGYIFNYYAMGWYRQAPGKERELVAAISTSGGSTYYADSVKGRFTISRDNAKNTVYLQMNSLKPEDTAVYYCAAVDYKANGYGYWGQGTQVTVSS”, the “polyreactivity (PSR sort gate)” value is reported as “high polyreactivity”.
With “QVQLVESGGGLVQAGGSLRLSCAASGFIFSKYAMGWYRQAPGKERELVAAITGGGSTNYADSVKGRFTISRDNAKNTVYLQMTSLKPEDTAVYYCAARGFTLTDYDRDLYYWGQGTQVTVSS” the “polyreactivity (PSR sort gate)” value was “low polyreactivity”.
In the case of “QVQLVESGGGLVQAGASLRLSCAASGSTSYPYAMGWYRQAPWKEREFVAAITRSGGSTYYADSVKGRYTISRDNAKNTVYLQMNSLKPEDTAFYYCAARRYYFTDWYRRYDYWGQGTQVTVSS”, the “polyreactivity (PSR sort gate)” value is reported as “high polyreactivity”.
For “QVQLVESGGGLVQAGGSLRLSCAASGITFPRNAMGWYRQAPGKERELVAAISARGGNTYYADSVKGRFTISRDNSKNTGYLQMIRLKPEDTAVYDCNALGSSFSEPSEYDYWGQGTQVTVSS”, the “polyreactivity (PSR sort gate)” value was “low polyreactivity”.
With “QVQLVESGGGLVQAGGSLRLSCAASGFTFYEYAMGWYRQAPGKERELVAAITQTGVRTYYADSVKGRFTISRDNAKNTVYLQMNSLKPEDTAVYYCAADDPRQRPRGHYDYWGQGTQVTVSS” the “polyreactivity (PSR sort gate)” value was “low polyreactivity”.
With “QVQLVESGGGLVQAGGSLRLSCAASGSTFKIYAMGWYRQAPGKERELVARITGRGGSTYYADSVKGRFTISRDNAKNTVYLQMNSLKPEDTAVYYCAARTYYVPYYYWGQGTQVTVSS” the “polyreactivity (PSR sort gate)” value was “high polyreactivity”.
For “QVQLVESGGGLVQAGGSLRLSCAASGSTFSINAMGWYRQAPGKERELVAAISSGGSTYYADSVKGRFTISRDNAKNTVYLQMNSLKPEDTAVYYCAVDPPWTYWSTYRYDYWGQGTQVTVSS”, the “polyreactivity (PSR sort gate)” value was “low polyreactivity”.
In the case of “QVQLVESGGGLVQAGGSHRLSCAASGLTLQRYTLGSYRQAPGKQSELVAAISRSGGGTYYADSVKGRFTISRDNAKNTVYLQMNSVKPEDTAVYYCAARGYTSYKHFGYWGQGTQVTVSS”, the “polyreactivity (PSR sort gate)” value is reported as “high polyreactivity”.
For “QVQLVESGGGLVQAGGSLRFSCAASGFIFVVNAMGGSRQAPGKEREFVAVISSSTGSTYYADSVKGRFTISRDNAKTTVYLQMNSLKPEDTAVYYCAAASRRRRPLKRMDYWGQGTQVTVSS”, the “polyreactivity (PSR sort gate)” value was “low polyreactivity”.
In the case of “QVQLVESGGGLVQAGGSLRLSCAASGRISLVNAMGWYRQAPGKERELVAAITYTGGSTYYADSVKGRFTISRDNAKNTVYLQMNSLKPEDTAVYYCAAEYYYVYTYDYWGQGTQVTVSS”, the “polyreactivity (PSR sort gate)” value is reported as “high polyreactivity”.
In the case of “QVQLVESGGGLVQAGGSLRLSCAASGFIFSGYAMGWYRQAPGKERELVATISGSGGSTYYADSVKGRFTISRDNAKNTVYLQMNSLKPEDTAVYYCNALYASSVRHKVTYDYWGQGTQVTVSS”, the “polyreactivity (PSR sort gate)” value is reported as “high polyreactivity”.
In the case of “QVQLVESGVGLVQAGGSLRLSCAASGRTFDLYAMGWYRQAPGKERELVAAITKGGGSTYYADSVKGRFTISRDNAKNTVYLQMNSLKPEDTAVYYCAARKYKRIYRISSGIGYYWGQGTQVTVSS”, the “polyreactivity (PSR sort gate)” value is reported as “high polyreactivity”.
For “QVHLVESGGGLVQAGGSLRLSCAASGRTFKYNTMGWYRQAPGKERELVAVISRSGGRTYYADSVKGRFTISRDNAKNTVYFQMNSLKPEDTAVYYCAKGIPYSDPQSAYDDYWGQGTQVTVSS”, the “polyreactivity (PSR sort gate)” value was “high polyreactivity”.
In the case of “QVQLVESGGGLVQAGGSLRLSCAASGRTLQQYVMGWYRQAPGQERELVAAITRGGRTNYADSVKGRFTISRDNAKNTVYLQMNSLNPEDTAVYYCNTRYPSRLVAWLDYWGQGTQVTVSS”, the “polyreactivity (PSR sort gate)” value is reported as “low polyreactivity”.
With “QVQLVESGGGLVQAGGSLRLSCAASGRIFEPYAMGWYRKAPGKERELLAAITSGGSTDYADSVKGRFTISRDNAKNTVYLQMNSLKPEDTAVYYCATRWGYAVSFDFYFLLSGVDYWGQGTQVTVSS” the “polyreactivity (PSR sort gate)” value was “low polyreactivity”.
For “QVQLVESGGGLVQAGGSLRLSCAASGFIFRWYAMGWYRQAPGKERELVAAITSGGSTYYADSVKGRFTISRDNAKNTVYLQMNSLKPEDTAVYYCNTYPGSRHWWYDYWGQGTQVTVSS”, the “polyreactivity (PSR sort gate)” value was “high polyreactivity”.
With “QVQLVESGGGLVQAGGSLRLSCAASGFTFYRNAMGWYRQAPGKEREMVAAITWSGTSTYYADSVKGRFTISRDNAKNTVYFQMNSLKPEDTAVYFCNTVGYRGRSNSRFYYWGQGTQVTVSS” the “polyreactivity (PSR sort gate)” value was “high polyreactivity”.
In the case of “QVQLVESGGGLVQAGCSLRLSCAASGRIFSFYVMGWYRQAPGKERELVAAISLSGGSTYYADSVKGRFTISRDNAKNTVYLQMNSLKPEDTAVYYCNAVLYARLRDRWARYDYWGQGTQVTVSS”, the “polyreactivity (PSR sort gate)” value is reported as “high polyreactivity”.
In the case of “QVQLVESGGGLVQAGGSLRLSCAASGSIFSQYAMGWYRQAPGKERELVAAITYGGGSTYYADSVKGRFTISRDNAKNTVYLQMNCLKAEDTALYYCAKEFKYWGYPYDYWGQGTQVTVSS”, the “polyreactivity (PSR sort gate)” value is reported as “low polyreactivity”.
